Test results from article PMC10786891, “Massively parallel profiling of RNA-targeting CRISPR-Cas13d”.
Positions count from the first letter of the chain named. Numbers in names are those of the source.

B1: target 1 insG 3' of 16,insA 3' of 7 (mixed)
RNA 1: CACCCGUGCAAAAAUGCAGGGGUCUAAAACUGAGCGGAUAACCUCUCUAUGG
RNA 2: GGGAAUGGAUCCACAUCUACGAAUUCGUACCAUAGAGGAGGUUAUCACGCUCACCGAGAUCGGAAGAGCACACGU
B2: target 1 C7G,A14U (mixed)
RNA 1: B1 RNA 1
RNA 2: GGGAAUGGAUCCACAUCUACGAAUUCGUACCAUAGAGUGGUUAUGCGCUCACCGAGAUCGGAAGAGCACACGU
B3: target 1 insG 3' of 8,insC 3' of 8 (mixed)
RNA 1: B1 RNA 1
RNA 2: B1 RNA 2 with G38A, A39G, G41U, U43A, A44U, U45G, A47C
B4: target 1 insC 3' of 5,insU 3' of 1 (mixed)
RNA 1: B1 RNA 1
RNA 2: GGGAAUGGAUCCACAUCUACGAAUUCGUACCAUAGAGAGGUUAUCCGCCUCAUCCGAGAUCGGAAGAGCACACGU
B5: target 1 G5A,A9G (mixed)
RNA 1: B1 RNA 1
RNA 2: B2 RNA 2 with U38A, A43G, G45C, G47A
B6: target 1 insC 3' of 20,insG 3' of 9 (mixed)
RNA 1: B1 RNA 1
RNA 2: B1 RNA 2 with U33C, A34U, G35A, A36G, G37A, U45G, C46U, A47C
B7: target 1 insC 3' of 10 (mixed)
RNA 1: B1 RNA 1
RNA 2: GGGAAUGGAUCCACAUCUACGAAUUCGUACCAUAGAGAGGUUCAUCCGCUCACCGAGAUCGGAAGAGCACACGU
B8: target 1 C4G,U8G (mixed)
RNA 1: B1 RNA 1
RNA 2: B2 RNA 2 with U38A, U44G, G45C, C48G
B9: target 1 insU 3' of 14,insG 3' of 14 (mixed)
RNA 1: B1 RNA 1
RNA 2: B1 RNA 2 with G38A, A39U, U42G, A44U, U45A, C46U, A47C
B10: target 1 insC 3' of 20,insU 3' of 15 (mixed)
RNA 1: B1 RNA 1
RNA 2: GGGAAUGGAUCCACAUCUACGAAUUCGUACCACUAGAGUAGGUUAUCCGCUCACCGAGAUCGGAAGAGCACACGU
B11: target 1 C6U,G15A (mixed)
RNA 1: B1 RNA 1
RNA 2: B2 RNA 2 with G37A, U38A, G45C, C46U
B12: target 1 insA 3' of 13,insG 3' of 4 (mixed)
RNA 1: B1 RNA 1
RNA 2: B1 RNA 2 with G38A, A39G, G40A, A47C, C48G, G49C, C50G
B13: target 1 U8A,A9G (mixed)
RNA 1: B1 RNA 1
RNA 2: B2 RNA 2 with U38A, A43G, U44A, G45C
B14: target 1 G5C,C7A (mixed)
RNA 1: B1 RNA 1
RNA 2: B2 RNA 2 with U38A, G45A, G47C
B15: target 1 insU 3' of 17,insG 3' of 14 (mixed)
RNA 1: B1 RNA 1
RNA 2: B10 RNA 2 with C33U, U34A, A35G, G36U, U39A, A40G
B16: target 1 insC 3' of 12,insC 3' of 5 (mixed)
RNA 1: B1 RNA 1
RNA 2: B1 RNA 2 with G38A, A39G, G41C, A47C, C48G, G49C
B17: target 1 A1C,U19G (mixed)
RNA 1: B1 RNA 1
RNA 2: B2 RNA 2 with U33G, U38A, G45C, A51C
B18: target 1 A18G,U19A (mixed)
RNA 1: B1 RNA 1
RNA 2: B2 RNA 2 with U33A, A34G, U38A, G45C
B19: target 1 C4A,U10A (mixed)
RNA 1: B1 RNA 1
RNA 2: B2 RNA 2 with U38A, U42A, G45C, C48A
B20: target 1 C7G,C22U (mixed)
RNA 1: B1 RNA 1
RNA 2: B2 RNA 2 with C30U, U38A
B21: target 1 A1G,C2A (mixed)
RNA 1: B1 RNA 1
RNA 2: B2 RNA 2 with U38A, G45C, C50A, A51G
B22: target 1 insA 3' of 17,insC 3' of 8 (mixed)
RNA 1: B1 RNA 1
RNA 2: B1 RNA 2 with G37A, A47C
B23: target 1 C2A,C7A (mixed)
RNA 1: B1 RNA 1
RNA 2: B2 RNA 2 with U38A, G45A, C50A
B24: target 1 insC 3' of 18,insA 3' of 11 (mixed)
RNA 1: B1 RNA 1
RNA 2: B10 RNA 2 with C33U, U34A, A35C, U39A, A40G, G42U, U43A
B25: target 1 A9U,G17U (mixed)
RNA 1: B1 RNA 1
RNA 2: B2 RNA 2 with G35U, U38A, A43U, G45C
B26: target 1 U19G (mixed)
RNA 1: B1 RNA 1
RNA 2: B2 RNA 2 with U33G, U38A, G45C
B27: target 1 insU 3' of 4,insU 3' of 2 (mixed)
RNA 1: B1 RNA 1
RNA 2: B4 RNA 2 with C49U, A52U, U53A
B28: target 1 C2A,C7U (mixed)
RNA 1: B1 RNA 1
RNA 2: B2 RNA 2 with U38A, G45U, C50A
B29: target 1 insA 3' of 17,insG 3' of 6 (mixed)
RNA 1: B1 RNA 1
RNA 2: B1 RNA 2 with G37A, A47C, C48G
B30: target 1 insC 3' of 5,insG 3' of 1 (mixed)
RNA 1: B1 RNA 1
RNA 2: B4 RNA 2 with U53G
B31: target 1 insU 3' of 7,insG 3' of 2 (mixed)
RNA 1: B1 RNA 1
RNA 2: B4 RNA 2 with C46U, G47C, C48G, A52G, U53A
B32: target 1 insA 3' of 17,insU 3' of 15 (mixed)
RNA 1: B1 RNA 1
RNA 2: B10 RNA 2 with C33U, U34A, A35G, G36A
B33: target 1 insC 3' of 5,insC 3' of 1 (mixed)
RNA 1: B1 RNA 1
RNA 2: B4 RNA 2 with U53C
B34: target 1 C4A,A20U (mixed)
RNA 1: B1 RNA 1
RNA 2: B2 RNA 2 with A32U, U38A, G45C, C48A

Target: T1, EsCas13d, nuclease-dead (Eubacterium siraeum, UniProt B0MS50, R295A;H300A;R849A;H854A)
T1 sequence: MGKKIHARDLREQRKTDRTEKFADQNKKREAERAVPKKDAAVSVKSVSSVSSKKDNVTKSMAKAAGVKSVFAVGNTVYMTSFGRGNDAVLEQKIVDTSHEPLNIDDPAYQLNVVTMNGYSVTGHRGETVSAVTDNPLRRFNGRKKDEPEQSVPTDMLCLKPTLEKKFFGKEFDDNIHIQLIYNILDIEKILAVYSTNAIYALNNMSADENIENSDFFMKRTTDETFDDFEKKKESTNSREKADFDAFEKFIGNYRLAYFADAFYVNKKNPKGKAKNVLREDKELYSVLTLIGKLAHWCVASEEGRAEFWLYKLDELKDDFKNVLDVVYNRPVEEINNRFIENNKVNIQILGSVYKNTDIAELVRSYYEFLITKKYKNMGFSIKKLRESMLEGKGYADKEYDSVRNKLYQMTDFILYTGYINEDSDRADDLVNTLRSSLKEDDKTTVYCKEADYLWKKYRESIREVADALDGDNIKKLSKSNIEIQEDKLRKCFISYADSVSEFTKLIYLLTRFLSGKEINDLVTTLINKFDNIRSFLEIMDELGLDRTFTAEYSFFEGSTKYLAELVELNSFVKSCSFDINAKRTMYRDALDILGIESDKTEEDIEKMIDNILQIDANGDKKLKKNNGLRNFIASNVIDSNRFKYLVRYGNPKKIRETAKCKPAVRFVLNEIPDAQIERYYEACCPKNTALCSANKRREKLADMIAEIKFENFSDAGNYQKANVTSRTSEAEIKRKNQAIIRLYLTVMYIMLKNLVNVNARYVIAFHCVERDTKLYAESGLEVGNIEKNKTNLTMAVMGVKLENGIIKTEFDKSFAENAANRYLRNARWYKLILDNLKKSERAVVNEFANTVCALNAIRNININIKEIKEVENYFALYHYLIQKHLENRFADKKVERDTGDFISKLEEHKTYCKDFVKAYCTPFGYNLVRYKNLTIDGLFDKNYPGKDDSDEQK
Test: crRNA (strand 1, pre-loaded); Mg2+; 40 mM Tris-HCl pH 7.5, 150 mM NaCl, 6 mM MgCl2, 1 mM DTT, 0.1% Tween-20, 0.2 mg/ml BSA; 25 C; 10 min per concentration, then washed
Conditions: tags: His6-TwinStrep-SUMO cleaved; N-terminal SNAP kept (SNAP-Surface 488); label: 3' end held by stalled T7 RNA polymerase

Row | Binder | Kd [nM]
1 | B1 | 14.5 ± 0.9
2 | B2 | 66 ± 16
3 | B3 | 12.9 ± 0.5
4 | B4 | 9.61 ± 0.26
5 | B5 | 19.3 ± 1.1
6 | B6 | 10.2 ± 0.8
7 | B7 | 15.5 ± 0.9
8 | B8 | 5.52 ± 0.21
9 | B9 | 44 ± 10
10 | B10 | 10 ± 0.7
11 | B11 | 11.9 ± 0.5
12 | B12 | 3.04 ± 0.19
13 | B13 | 19.3 ± 1
14 | B14 | 21.2 ± 1.4
15 | B15 | 23 ± 5
16 | B16 | 13.4 ± 0.7
17 | B17 | ~80

Row | Binder | Kd [nM]
18 | B18 | 98 ± 25
19 | B19 | 5.3 ± 0.4
20 | B20 | 13.7 ± 0.7
21 | B21 | 5.2 ± 0.32
22 | B22 | 18.6 ± 1.3
23 | B23 | 5.34 ± 0.16
24 | B24 | 74 ± 9
25 | B25 | 30 ± 4
26 | B26 | 48 ± 5
27 | B27 | 9.5 ± 0.4
28 | B28 | 5.2 ± 0.4
29 | B29 | 19.4 ± 0.8
30 | B30 | 8.4 ± 0.6
31 | B31 | 15.3 ± 1.2
32 | B32 | 12 ± 4
33 | B33 | 19.6 ± 3.4
34 | B34 | 21.1 ± 3.3
